Drawing on paper PMC5045424, “The La protein counteracts cisplatin-induced cell death by stimulating protein synthesis of anti-apoptotic factor Bcl2”, this text covers Kd for one molecule.

For data set [1], the target named is T1, La (LARP3, La/SSB), recombinant His-tagged wildtype (human, UniProt P05455 1-408).
T1 sequence: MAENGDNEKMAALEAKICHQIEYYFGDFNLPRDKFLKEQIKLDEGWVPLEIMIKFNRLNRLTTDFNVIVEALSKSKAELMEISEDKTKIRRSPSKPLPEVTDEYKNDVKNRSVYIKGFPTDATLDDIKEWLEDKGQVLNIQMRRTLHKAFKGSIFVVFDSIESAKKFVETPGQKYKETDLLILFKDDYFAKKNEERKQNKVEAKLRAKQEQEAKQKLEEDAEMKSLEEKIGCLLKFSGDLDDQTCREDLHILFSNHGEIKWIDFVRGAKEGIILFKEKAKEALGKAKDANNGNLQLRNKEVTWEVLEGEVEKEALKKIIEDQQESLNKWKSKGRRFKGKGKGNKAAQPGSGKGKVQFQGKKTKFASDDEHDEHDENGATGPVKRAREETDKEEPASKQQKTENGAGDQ
In words: EMSA; 25 nM RNA, 0-600 nM La; EMSA and FP: 25 nM FAM-RNA, 0-600 nM La; competition FP: 200 nM La; buffer, salt, pH and temperature not given (cited to ref 21). The following applies: protein: recombinant; tags: His; label: 5' 6-FAM; stem-loop embedding the AUG (mfold). On the technique in general: In EMSA bound probe runs differently from free probe, usually more slowly.

The target of data set [2] is T1, La (LARP3, La/SSB), recombinant …. The experiment in a line: fluorescence polarization; 25 nM RNA; EMSA and FP: 25 nM FAM-RNA, 0-600 nM La; competition FP: 200 nM La; buffer, salt, pH and temperature not given (cited to ref 21). The following applies: protein: recombinant; tags: His; label: 5' 6-FAM; stem-loop embedding the AUG (mfold). (In general: Fluorescence polarisation rises when a labelled molecule tumbles more slowly, as on binding a larger partner.)

As to CCCGUUGCUUUUCCUCUGGGAAGGAUGGCGCACGCUGGG (structured_RNA) [Bcl2_WT RNA oligonucleotide, FAM-labeled (-24 to +15)], the figures for the equilibrium dissociation constant (Kd) in data set [1] and in data set [2] were 50.5 ± 5.9 nM and 60.1 ± 4.5 nM, respectively.

Broadly, the Kd is the constant that tells how readily two partners part at equilibrium.
